{"source": "patent EP4269437A1", "binders": {"B1": {"name": "NB215 (VHH)", "VHH": "EVQVVESGGGLVQAGDSLRLSCAASGGTISGYEMGWFRQAPGKEREFVAGISRNGRSTGYSDSAKDRFTISRDNAKNTVYLQMNSLKPEDTAVYYCAAGLKADYGDSYVDTSTRNYNYWGQGTQVTVSS"}, "B2": {"name": "NB194 (Fc fusion, not shown: a dimerising Fc or GST)", "VHH": "QVQLVETGGGLVRAGGSLRLSCTASGRPFSIYDMGWFRQAPDKERESVAVINLSRGDTYYADSVKGRFTISLDSAKNTVYLQMNSLKPEDTAVYSCGVDRRQYGLGIPPLADHWGQGTQVTVSS"}, "B3": {"name": "NB220 (VHH)", "VHH": "QVQLQESGGGLLQAGDSLRLSCIVSGRTFSSYAIGWFRQAPGKEREFVAGINWSGRSQYYSESVKDRFTVSIDNAKNTVYLQMNSLKPEDTAVYYCAAERHLGVPTVRDDEYDDWGQGTQVTVSS"}, "B4": {"name": "NB182 (Fc fusion, not shown: a dimerising Fc or GST)", "VHH": "QVQLVESGGGLVQAGGSLRLSCAASGDTSFISAAGWYRQAPGKERELVAAITNTGITYYPDSVKGRFTISRDNAKNTVYLQMNNLKPEDTAVYYCNAGAPPPGGLGYDESDYWGQGTQVTVSS"}, "B5": {"name": "NB202 (VHH)", "VHH": "EVQVVESGGGLVQAGGSLRLSCTASGDTRLASAMGWYRQAPGKERELVAAITNSGLTYYADSVEGRFTISRDSAKNTVYLQMNSLKPEDTAVYYCNAGAPPPGGLGYDESDYWGQGTQVTVSS"}, "B6": {"name": "NB209 (VHH)", "VHH": "B5 VHH with A14T, T23A, R29A, A31F, M34V, I51L, S54T, L56I, S70F, S73N"}, "B7": {"name": "NB205 (VHH)", "VHH": "EVQLVESGGGLVQVGDSLRLSCAASGRTFSSVPMGWFRQAPGNQREFVAAISKSGGSAGYADSVKDRSTISRDNAKNTIYLQMNSLKPEDTAVYYCAASSFDFCSTHGCYDYWGQGTQVTISS"}, "B8": {"name": "NB216 (VHH)", "VHH": "B7 VHH with E1Q, Q13R, V14A, R19T, F101Y"}, "B9": {"name": "NB211 (VHH)", "VHH": "EVQVVETGGGLAQAGGSLRLSCAASGRTFSGYTVGWYRQSPGKEREFVAAISYSGGSTDYADSVKGRFTISRDNANNTVYLQMGSLKAEDTAVYYCNRVIRGTRDPSIYYVMDYWGKGTLVTVSS"}, "B10": {"name": "NB218 (VHH)", "VHH": "QLQLVESGGGLVQAGDSLRLSCAASGRTFSSIAMGWFRQAPGKEREFVAAISRSGGSAGYADSVKDRSTIVRDNTKNTVYLQMNSLKPEDTAVYFCAASDYDFCSTHGCYDYWGQGTQVTISS"}}, "note": "Residue numbers refer to the chain shown, from its start. Where “and” joins values, the source holds several entries; their conditions need not be identical. Equal values may be shown once.", "data": [{"target": "PD-1 (UniProt Q15116)", "assay": "ELISA, TG1 supernatant on coated PD-1, anti-c-myc HRP", "units": {"OD450, clone binding with PD-1": "OD450"}, "values": [{"binder": "B1", "OD450, clone binding with PD-1": 3.29}, {"binder": "B2", "OD450, clone binding with PD-1": 2.83}, {"binder": "B3", "OD450, clone binding with PD-1": 2.38}, {"binder": "B4", "OD450, clone binding with PD-1": 3.08}, {"binder": "B5", "OD450, clone binding with PD-1": 3.04}, {"binder": "B6", "OD450, clone binding with PD-1": 3.22}, {"binder": "B7", "OD450, clone binding with PD-1": 2.25}, {"binder": "B8", "OD450, clone binding with PD-1": 2.75}, {"binder": "B9", "OD450, clone binding with PD-1": 2.71}, {"binder": "B10", "OD450, clone binding with PD-1": 2.62}]}, {"target": "PD-1 (UniProt Q15116)", "assay": "blocking ELISA, clone supernatant, competitor PD-L1.hFc detected with anti-human Fc HRP", "units": {"OD450, PD-L1 binding with PD-1": "OD450"}, "values": [{"binder": "B1", "OD450, PD-L1 binding with PD-1": 1.27}, {"binder": "B2", "OD450, PD-L1 binding with PD-1": 0.152}, {"binder": "B3", "OD450, PD-L1 binding with PD-1": 2.21}, {"binder": "B4", "OD450, PD-L1 binding with PD-1": 0.213}, {"binder": "B5", "OD450, PD-L1 binding with PD-1": 0.723}, {"binder": "B6", "OD450, PD-L1 binding with PD-1": 2.04}, {"binder": "B7", "OD450, PD-L1 binding with PD-1": 2.2}, {"binder": "B8", "OD450, PD-L1 binding with PD-1": 2.45}, {"binder": "B9", "OD450, PD-L1 binding with PD-1": 2.21}, {"binder": "B10", "OD450, PD-L1 binding with PD-1": 2.32}]}, {"target": "PD-1 (CD28 family protein, ACROBiosystems) (UniProt Q15116)", "sequence (Q15116 25-167 limits assumed)": "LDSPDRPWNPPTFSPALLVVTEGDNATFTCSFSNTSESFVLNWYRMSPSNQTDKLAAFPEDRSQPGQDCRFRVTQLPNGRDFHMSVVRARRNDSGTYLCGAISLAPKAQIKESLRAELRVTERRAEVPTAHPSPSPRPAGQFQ", "assay": "ELISA on coated protein, anti-human Fc HRP", "values": [{"binder": "B2", "ELISA (OD)": "2.03 OD and 1.96 OD and 2.27 OD"}, {"binder": "B4", "ELISA (OD)": "2.06 OD and 2.09 OD and 2.29 OD"}]}, {"target": "cynomolgus monkey PD-1 protein (cynomolgus monkey) (UniProt B0LAJ3)", "sequence (B0LAJ3 entry or part of it limits assumed)": "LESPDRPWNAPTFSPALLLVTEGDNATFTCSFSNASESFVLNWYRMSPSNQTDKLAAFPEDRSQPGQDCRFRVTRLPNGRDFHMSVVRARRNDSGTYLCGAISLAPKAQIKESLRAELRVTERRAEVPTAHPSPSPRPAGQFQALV", "assay": "ELISA on coated protein, anti-human Fc HRP", "values": [{"binder": "B2", "ELISA (OD)": "2.23 OD and 2.17 OD and 2.1 OD"}, {"binder": "B4", "ELISA (OD)": "2.07 OD and 2.08 OD and 1.95 OD"}]}, {"target": "PD-1 (UniProt Q15116)", "assay": "ELISA on coated protein, anti-human Fc HRP", "values": [{"binder": "B2", "ELISA (OD)": "2.22 OD and 1.95 OD and 2.11 OD"}, {"binder": "B4", "ELISA (OD)": "2.17 OD and 2.13 OD and 2.1 OD"}]}]}
